Results from patent publication US20220040319A1, “METHODS OF TREATING OCULAR CANCER USING ANTI-MET ANTIBODIES AND BISPECIFIC ANTIGEN BINDING MOLECULES THAT BIND MET” (Regeneron Pharmaceuticals, Inc., priority 2019, published 2022).

Columns and labels:
[1] = biological target: human MET (exon14 skip mutation) on NCI-H596 cells (human) (UniProt P08581); experiment: cell-based or functional assay
[2] = biological target: MET (c-Met, hepatocyte growth factor receptor) on cells (human) (UniProt P08581)
Chain of MET (c-Met, hepatocyte growth factor receptor) on cells (human) (P08581 25-1390 limits assumed, form in doubt): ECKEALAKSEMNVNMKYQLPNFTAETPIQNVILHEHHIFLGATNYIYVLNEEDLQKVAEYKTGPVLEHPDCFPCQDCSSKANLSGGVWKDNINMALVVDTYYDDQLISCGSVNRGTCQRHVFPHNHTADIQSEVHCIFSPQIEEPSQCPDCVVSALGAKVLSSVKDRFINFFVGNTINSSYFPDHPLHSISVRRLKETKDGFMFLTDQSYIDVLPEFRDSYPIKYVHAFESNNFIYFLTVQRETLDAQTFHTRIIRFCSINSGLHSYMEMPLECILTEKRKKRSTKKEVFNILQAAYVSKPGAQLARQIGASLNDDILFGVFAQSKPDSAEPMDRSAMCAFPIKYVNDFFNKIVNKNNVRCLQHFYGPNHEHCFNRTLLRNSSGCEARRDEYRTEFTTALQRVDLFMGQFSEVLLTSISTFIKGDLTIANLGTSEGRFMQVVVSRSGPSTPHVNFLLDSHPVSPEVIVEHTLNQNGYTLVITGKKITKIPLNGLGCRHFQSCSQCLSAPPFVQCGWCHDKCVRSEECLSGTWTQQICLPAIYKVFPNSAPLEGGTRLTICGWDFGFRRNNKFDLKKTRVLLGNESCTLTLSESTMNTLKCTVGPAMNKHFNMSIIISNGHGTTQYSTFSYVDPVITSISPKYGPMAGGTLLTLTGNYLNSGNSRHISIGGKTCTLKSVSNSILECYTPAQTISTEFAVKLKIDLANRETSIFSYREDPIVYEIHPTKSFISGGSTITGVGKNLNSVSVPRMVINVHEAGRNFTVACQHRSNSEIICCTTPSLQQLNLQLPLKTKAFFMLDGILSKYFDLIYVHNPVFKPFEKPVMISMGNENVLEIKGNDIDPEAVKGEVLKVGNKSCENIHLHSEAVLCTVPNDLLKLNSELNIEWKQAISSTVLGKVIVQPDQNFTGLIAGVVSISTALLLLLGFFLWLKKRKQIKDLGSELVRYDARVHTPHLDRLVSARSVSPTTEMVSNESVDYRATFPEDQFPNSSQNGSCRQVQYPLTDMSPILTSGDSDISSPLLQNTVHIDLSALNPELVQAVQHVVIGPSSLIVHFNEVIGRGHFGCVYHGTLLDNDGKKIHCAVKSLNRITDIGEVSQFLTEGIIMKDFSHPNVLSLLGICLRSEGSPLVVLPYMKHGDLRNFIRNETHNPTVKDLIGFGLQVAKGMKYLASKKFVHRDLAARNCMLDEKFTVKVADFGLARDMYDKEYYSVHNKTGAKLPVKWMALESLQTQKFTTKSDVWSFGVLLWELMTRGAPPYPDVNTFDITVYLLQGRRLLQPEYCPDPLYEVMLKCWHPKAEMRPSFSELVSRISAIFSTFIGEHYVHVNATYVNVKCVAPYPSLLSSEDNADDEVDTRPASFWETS

[3] = biological target: MET (c-Met, hepatocyte growth factor receptor) on cells (human) (UniProt P08581); remark: listed apart in the source

Chain of human MET (exon14 skip mutation) on NCI-H596 cells (human) (P08581 25-1390, change not shown): as the sequence (P08581 25-1390 limits assumed, form in doubt) above

Relative Cell Growth (n = 3), NCI-H596 cells in soft agar, 100 ng/mL HGF, two weeks (normalized to control) [1]	IC50 (read off the curve); blocking of HGF-induced SRE-luciferase signal in HEK293/SRE-Luc cells [2] [nM]	IC50 (read off the curve); blocking of HGF-dependent SRE-driven luciferase signal in HEK293T cells [3] [nM]	Substance
7.88			hepatocyte growth factor (from UniProt P14210 32-728) (ligand)
	0.06	0.4	monovalent anti-MET antibody (made with the heavy and light chain variable sequences of MetMab)
